# In publication PMC5340921:
# T1: PPR10 (maize, UniProt B8Y6I0 38-786)
# T1 sequence: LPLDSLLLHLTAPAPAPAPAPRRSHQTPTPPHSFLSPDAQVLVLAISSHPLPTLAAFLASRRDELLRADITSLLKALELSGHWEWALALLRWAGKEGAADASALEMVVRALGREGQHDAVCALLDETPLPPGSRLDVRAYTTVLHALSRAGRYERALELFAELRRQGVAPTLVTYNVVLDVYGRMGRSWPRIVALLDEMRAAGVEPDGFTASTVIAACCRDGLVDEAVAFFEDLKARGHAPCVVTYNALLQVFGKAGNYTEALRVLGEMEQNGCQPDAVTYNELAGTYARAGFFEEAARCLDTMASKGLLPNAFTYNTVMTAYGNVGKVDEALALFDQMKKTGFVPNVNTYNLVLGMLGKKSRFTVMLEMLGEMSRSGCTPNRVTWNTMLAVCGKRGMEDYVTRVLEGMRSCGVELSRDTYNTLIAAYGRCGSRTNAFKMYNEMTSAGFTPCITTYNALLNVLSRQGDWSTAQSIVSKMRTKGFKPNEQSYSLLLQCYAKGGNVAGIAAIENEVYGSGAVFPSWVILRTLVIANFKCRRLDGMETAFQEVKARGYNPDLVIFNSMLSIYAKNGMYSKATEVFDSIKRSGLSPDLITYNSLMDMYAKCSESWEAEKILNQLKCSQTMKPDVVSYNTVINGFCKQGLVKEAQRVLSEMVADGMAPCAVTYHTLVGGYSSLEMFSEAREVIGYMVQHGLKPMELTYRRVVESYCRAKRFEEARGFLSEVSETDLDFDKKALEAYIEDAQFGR
# Target: T1, PPR10
# Assay: EMSA
binder,measurement,value
GUAUCCUUAACCAUUUC (ssRNA) [atpH WT 17-mer],binding result,binds
